Assay results from article PMC3351836 (Science (New York, N.y.), 2011).

B1: 3BNC60 (antibody, V domains shown)
VH: QVHLSQSGAAVTKPGASVRVSCEASGYKISDHFIHWWRQAPGQGLQWVGWINPKTGQPNNPRQFQGRVSLTRQASWDFDTYSFYMDLKAVRSDDTAIYFCARQRSDFWDFDVWGSGTQVTVSS
VL: DIQMTQSPSSLSARVGDTVTITCQANGYLNWYQQRRGKAPKLLIYDGSKLERGVPARFSGRRWGQEYNLTINNLQPEDVATYFCQVYEFIVPGTRLDLK
B2: NIH45-46 (antibody, V domains shown)
VH: QVRLSQSGGQMKKPGESMRLSCRASGYEFLNCPINWIRLAPGRRPEWMGWLKPRGGAVNYARKFQGRVTMTRDVYSDTAFLELRSLTSDDTAVYFCTRGKYCTARDYYNWDFEHWGRGAPVTVSS
VL: EIVLTQSPATLSLSPGETAIISCRTSQSGSLAWYQQRPGQAPRLVIYSGSTRAAGIPDRFSGSRWGADYNLSISNLESGDFGVYYCQQYEFFGQGTKVQVD

Target: YU2-gp120 (HIV-1 group M subtype B, isolate YU-2, UniProt P35961)
Test: ELISA

Binder	binding result
B1	binds
B2	binds
